In patent US5846743A, “Polyphoshoinositide binding peptides for intracellular drug delivery” (Brigham and Women's Hospital, Inc., priority 1996, dated 1998):
Where a SMILES comes first, the peptide text is derived from it. The star is where a group is joined. RhodamineB = CCN(CC)c1ccc2c(-c3ccccc3C(=O)*)c3ccc(=[N+](CC)CC)cc-3oc2c1

Test system: cells exposed to conjugate in culture medium, regardless of the cell type

SMILES: CCN(CC)c1ccc2c(-c3ccccc3C(=O)N[C@@H](CCC(N)=O)C(=O)N[C@@H](CCCNC(=N)N)C(=O)N[C@@H](CC(C)C)C(=O)N[C@@H](Cc3ccccc3)C(=O)N[C@@H](CCC(N)=O)C(=O)N[C@H](C(=O)N[C@@H](CCCCN)C(=O)NCC(=O)N[C@@H](CCCNC(=N)N)C(=O)N[C@@H](CCCNC(=N)N)C(=O)O)C(C)C)c3ccc(=[N+](CC)CC)cc-3oc2c1 [rhodamine-Sequence I.D. No. 2] (RhodamineB-QRLFQVKGRR-OH)
- intracellular free calcium increase caused by conjugate: did not result in uptake of free fluorescein or induce a large increase in intracellular free calcium
